In patent publication US20210070829A1:

Molecular target: FGFR/β-Klotho receptor complex
Assay: cell-based or functional assay

FGF21 activity EC50 (luciferase reporter): 0.12 nM
Substance: Native FGF21 (from UniProt Q9NSA1 29-209) (ligand)
